In patent US8008452B2, “Phosphorylated Ndr kinase” (Novartis Forschungesstiftung, Zweigniederlassung Friedrich …, priority 2002, dated 2011):

Legend:
NDR2 [1] = molecular target: T1, NDR2 (Homo sapiens, UniProt Q9Y2H1); test: NDR2 specific kinase activity in vitro with Ca2+/S100B; type: biochemical; conditions: concentration dependent
T1 construct: made in house; host or cells: E. coli (inferred from b139 and b74)
Procedure: (§1) All other procedures (including bacterial expression, kinase assays, immunodetection and mass spectrometry) were carried out essentially as described in the Methodology section above.
(§2) The sequence conservation between NDR1 and NDR2 also encompasses the previously defined S100 binding domain of NDR1. Therefore, the in vitro effect of Ca2+/S100B on NDR2 activity was measured in a time and concentration dependent manner. Ca2+/S100B increases the rate of NDR2 autophosphorylation by ˜2-fold after 4 hours of incubation, as measured by mass spectrometry anlaysis, and it stimulates the specific NDR activity in a concentration dependent manner up to ˜4-fold. […] After in vitro incubation of GST-NDR2 in the presence and absence of Ca2+/S100B, the proteins were digested with trypsin, and the resultant mixture was analysed by ESI-MS-MS in a −79 precursor scan, measuring the mass charge ratio (m/z) of all peptide species that liberate a single phosphate group after fragmentation. The identity of 5 NDR2 derived phosphopeptides could be determined in both samples, the GST-NDR2 and the GST-NDR2/Ca2+/S100B.

GST-NDR1 [2] = test: Immunodetection of GST-NDR1 phosphorylated on Ser281 or Thr444 after in vitro autophosphorylation; type: biochemical, human; conditions: in vitro autophosphorylation with or without Ca2+/S100B
Procedure: Either 1 microgram GST-NDR1 or HA-NDR1 immunoprecipitated from 100 microgram COS-1 detergent extracts as described above was separated on 10% SDS-PAGE and immunoblotted 2 h at RT or overnight at 4° C. with anti-Ser281P antisera (1:1000) in the presence of 50 microg/ml competing unphosphopeptide or anti-Thr444P purified antibody (1:500). Both antibodies were detected with horseradish peroxidase-conjugated donkey anti-rabbit Ig antibody (Amersham biosciences) and developed by ECL (chemiluminescence; Amersham Pharmacia Biotech).
To reliably quantify the effect of S100B on NDR1 phosphorylation status, rabbit polyclonal antibodies were raised against phosphoepitopes comprising Ser281 or Thr444. GST-NDR1 mutants were treated essentially as described in Example 2 and detected either with anti-NDR1_C-term antiserum or polyclonal antibodies recognising NDR1 phosphorylated on Ser281 or Thr444.

GST-NDR1 [3] = molecular target: T2, GST-NDR1 (Homo sapiens, UniProt Q15208); test: GST-NDR1 in vitro autophosphorylation, incorporated 32P by Cerenkov counting; type: biochemical; conditions: on both Ser281 and Thr444
T2 construct: made in house; host or cells: E. coli BL21-DE3-pRep4
Procedure: BL21-DE3-pRep4 E. coli strain was transformed with the pGEX-2T_NDR1 wild type or mutant plasmids. BL21-DE3 is a protease-deficient E. coli strain and pRep4 is a Laclq repressor-bearing plasmid both available commercially. Optionally, if desired, an E. coli strain comprising GroESL can be used, which expresses a chaperone protein that stabilizes the kinase. Mid-logarithmic phase cells were induced with 0.5 mM isopropyl beta-D-thiogalactopyranoside (IPTG) for 4 hours at 30° C. Bacteria were lysed using a French press in the presence of 1 mg/ml lysosyme, and the fusion proteins were purified on glutathione-agarose (Amersham Pharmacia Biotech) as described by the manufacturers. Recombinant proteins were assayed for kinase activity as described below and autophosphorylation was determined after SDS-PAGE separation either by Cerenkov counting or by exposure to a PhosphorImager screen followed by analysis with ImageQuant software (Molecular Dynamics).
In brief, 1 microgram of purified GST-NDR1 (in solution ˜0.5 microM) wild type, kinase dead (K118A), and alanine mutants of phosphorylation residues Thr74, Ser281, and Thr444 were autophosphorylated for 2 hours in vitro without further additions or in the presence of 1 mM CaCl2 and 10 microM bovine S100B. Proteins were visualized on SDS gels using Coomassie Blue R-350 stained SDS-PAGE gel, and [gamma-^32P]ATP-labelled proteins were visualized by autoradiography of the gels developed on a Phosphorimager screen. The amount of incorporated ^32P was quantified by Cerenkov counting.
Target sequence in this assay (Q15208 2-465): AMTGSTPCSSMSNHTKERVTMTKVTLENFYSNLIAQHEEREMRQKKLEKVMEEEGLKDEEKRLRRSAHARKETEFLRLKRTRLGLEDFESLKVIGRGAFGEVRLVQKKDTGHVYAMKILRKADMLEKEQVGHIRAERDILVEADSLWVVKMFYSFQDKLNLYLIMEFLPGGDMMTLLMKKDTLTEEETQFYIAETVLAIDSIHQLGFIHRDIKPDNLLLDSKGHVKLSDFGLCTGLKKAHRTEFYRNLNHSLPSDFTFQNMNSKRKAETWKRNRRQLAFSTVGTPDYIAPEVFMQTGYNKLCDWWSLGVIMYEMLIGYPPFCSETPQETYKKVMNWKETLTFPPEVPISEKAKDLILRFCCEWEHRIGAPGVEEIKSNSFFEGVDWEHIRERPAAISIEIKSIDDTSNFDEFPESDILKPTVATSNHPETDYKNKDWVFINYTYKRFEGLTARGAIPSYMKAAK

GST-NDR1 [4] = molecular target: T2, GST-NDR1; test: GST-NDR1 kinase assay (peptide kinase assay); type: biochemical
Procedure: 1 microgram of purified recombinant GST-NDR1 wild type and mutants (without further treatment or autophosphorylated for 2 h in the presence or absence of 1 mM CaCl2 and […] (Sigma)) were assayed in 20 microliter of reaction mixture containing 20 mM Tris-HCl pH 7.5, 10 mM MgCl2, 1 mM DTT, 100 microM [gamma-^32P]ATP (˜0.5 microCi/microliter), and 1 mM NDR1 substrate peptide ([…]; SEQ ID NO:22). After 30 mins incubation at 30° C., reactions were stopped with 50 mM EDTA, and 10 microliters of reaction mixture were spotted onto 2 cm^2 squares of P81 phosphocellulose paper (Whatman). These were subsequently washed for 4×5 min and 3×20 min in 1% phosphoric acid and once in acetone before counting in a liquid scintillation counter. One unit of NDR1 activity was defined as the amount which catalyses the phosphorylation of 1 nmol peptide substrate in 1 min.
Specific activity of GST-NDR1 mutants was also measured by a peptide kinase assay as described above. For this purpose, 1 microgram of purified GST-NDR1 wild type and alanine mutants were left without further treatment or autophosphorylated for 2 h in the presence or absence of 1 mM CaCl2 and […].
Target sequence in this assay (Q15208 whole entry): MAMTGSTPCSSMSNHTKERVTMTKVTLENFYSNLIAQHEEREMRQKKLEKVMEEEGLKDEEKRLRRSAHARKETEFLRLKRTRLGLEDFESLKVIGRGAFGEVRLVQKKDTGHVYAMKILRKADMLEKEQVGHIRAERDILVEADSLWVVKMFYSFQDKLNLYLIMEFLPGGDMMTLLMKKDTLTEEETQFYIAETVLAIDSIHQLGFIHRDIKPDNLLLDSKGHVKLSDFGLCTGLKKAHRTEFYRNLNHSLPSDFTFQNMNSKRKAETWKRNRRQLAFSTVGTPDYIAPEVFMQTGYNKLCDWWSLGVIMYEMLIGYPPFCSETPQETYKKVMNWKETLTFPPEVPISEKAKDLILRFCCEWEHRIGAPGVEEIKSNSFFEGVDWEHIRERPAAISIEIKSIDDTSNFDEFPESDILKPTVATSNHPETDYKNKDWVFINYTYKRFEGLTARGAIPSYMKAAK

NDR2 [5] = molecular target: T1, NDR2; test: GST-NDR2 in vitro autophosphorylation with Ca2+/S100B; type: biochemical; conditions: after 4 hours of incubation
Procedure: as §1, §2

HA-NDR1 = HA-NDR1 kinase assay on 12CA5 immunoprecipitates from transfected, treated COS-1 cells; type: cell-based, human; conditions: COS1 cells cotransfected with HA-NDR1, treated with OA; versus empty vector
Procedure: In some experiments, the cells were treated for 60 min with 1 microM okadaic acid in 0.1% N,N-dimethylformamide (DMF) (Alexis Corp.), 50 microM BAPTA-AM (1,2-bis (o-aminophenoxy) ethane-N,N,N′,N′-tetraacetic acid tetra (acetoxy-methyl)ester) in 0.1% diimethylsulfoxide (DMSO; Sigma), or 20 microM thapsigargin in 0.1% DMSO (Alomone) 24 hours after transfection.
Transfected and treated COS-1 cells were washed once with ice-cold PBS, and harvested by rubber policeman in 1 ml ice-cold PBS containing 1 mM Na3VO4 and 20 mM beta-glycerophosphate before lysis in 500 microliters of IP buffer (20 mM Tris-HCl pH 8.0, 150 mM NaCl, 1% Nonidet P-40, 10% glycerol, 1 mM Na3VO4, 20 mM beta-glycerolphosphate, 1 microM microcystin-LR, 50 mM NaF, 0.5 mM PMSF, 4 microM leupeptin, 1 mM benzamidine, and 1 tablet/10 ml IP of Complete protease inhibitors (Roche)). Lysates were centrifuged at 20 000 g for 20 min and triplicate aliquots (200 microg) of supernatant were precleared with protein A-Sepharose (Amersham Pharmacia Biotech) for 60 min and mixed subsequently for 3 h at 4° C. with 12CA5 antibody prebound to protein A-Sepharose (˜1 microg antibody bound to 2 microl beads). The beads were then washed twice with IP buffer, once for 10 min with IP buffer containing 1 M NaCl, once again for 10 min with IP buffer, and finally twice with 20 mM Tris-HCl pH 7.5 containing 4 microM leupeptin and 1 mM benzamidine. […] After 60 min incubation at 30° C., 15 microliters of supernatant were removed, and phosphate incorporation into the substrate peptide determined as described for GST-NDR1 above. […]
To test whether hMOB1 plays a role in NDR activation, myc-hMOB1 or the empty vector was cotransfected with HA-NDR1 in COS1 cells and treated with OA. […] The reactions were resolved on a 10% SDS PAGE and the radioactivity visualised by using a phosphoimager.

HA-NDR = molecular target: T3, HA-NDR (Homo sapiens, UniProt Q15208); test: Autophosphorylation of immunoprecipitated HA-NDR with added GST-MOB or GST; type: biochemical; conditions: added to HA-NDR kinase reactions; GST as control
T3 construct: expressed in transfected cells; host or cells: COS-1 (HA-NDR1)
T3 sequence (Q15208 whole entry, one chain of several): as the sequence (Q15208 whole entry) above
Procedure: To test whether hMOB1 plays a role in NDR activation, myc-hMOB1 or the empty vector was cotransfected with HA-NDR1 in COS1 cells and treated with OA. 12CA5 immunoprecipitates were then assayed using the peptide kinase assay for HA-NDR kinase activity. […] GST-MOB and GST respectively was added to immunoprecipitated HA-NDR and kinase reaction were performed. The reactions were resolved on a 10% SDS PAGE and the radioactivity visualised by using a phosphoimager.

T1 sequence (Q9Y2H1 whole entry, one chain of several): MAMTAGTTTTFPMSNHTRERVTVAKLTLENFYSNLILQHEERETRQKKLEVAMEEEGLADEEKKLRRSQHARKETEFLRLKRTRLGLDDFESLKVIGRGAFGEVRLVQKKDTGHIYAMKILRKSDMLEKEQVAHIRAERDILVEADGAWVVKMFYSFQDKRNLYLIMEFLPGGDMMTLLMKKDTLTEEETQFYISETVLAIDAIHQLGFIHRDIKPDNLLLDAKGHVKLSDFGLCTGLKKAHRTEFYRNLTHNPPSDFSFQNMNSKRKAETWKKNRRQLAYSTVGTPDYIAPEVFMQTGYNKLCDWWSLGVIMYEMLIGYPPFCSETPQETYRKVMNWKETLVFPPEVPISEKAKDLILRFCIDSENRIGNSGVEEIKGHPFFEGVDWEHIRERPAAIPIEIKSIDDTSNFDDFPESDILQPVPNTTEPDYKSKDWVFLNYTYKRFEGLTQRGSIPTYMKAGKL

B1: S100B: bovine S100B, EF-hand Ca2+-binding protein, added with 1 mM CaCl2 (protein)
chain: SELEKAVVALIDVFHQYSGREGDKHKLKKSELKELINNELSHFLEEIKEQEVVDKVMETLDSDGDGECDFQEFMAFVAMITTACHEFFEHE
- stimulation of specific NDR activity (NDR2) (NDR2 [1]): ~4 fold
- phosphorylation of GST-NDR1 on Ser281 and Thr444 (phosphospecific antibodies) (GST-NDR1 [2]): enhance phosphorylation on both Ser281 and Thr444
- increase in autophosphorylation of wild-type GST-NDR1 on addition of S100B (GST-NDR1 [3]): ~2 fold
- increase in kinase activity of wild-type GST-NDR1 on addition of S100B (GST-NDR1 [4]): ~5 fold
- increase of the rate of NDR2 autophosphorylation (NDR2 [5]): ~2 fold

B2: hMOB1: human MOB1 (GI: 11691898, SEQ ID NO:5), myc-tagged, cotransfected with HA-NDR1 (protein)
chain: MSFLFSSRSSKTFKPKKNIPEGSHQYELLKHAEATLGSGNLRQAVMLPEGEDLNEWIAVNTVDFFNQINMLYGTITEFCTEASCPVMSAGPRYEYHWADGTNIKKPIKCSAPKYIDYLMTWVQDQLDDETLFPSKIGVPFPKNFMSVAKTILKRLFRVYAHIYHQHFDSVMQLQEEAHLNTSFKHFIFFVQEFNLIDRRELAPLQELIEKLGSKDR
modifications: left off: small tags and cut ends
- stimulation of OA stimulated NDR kinase activity by cotransfected myc-hMOB1 (HA-NDR1): two to threefold stimulation

B3: GST-hMOB1: GST fusion of hMOB1 added to HA-NDR kinase reactions (protein)
chain: MSFLFSSRSSKTFKPKKNIPEGSHQYELLKHAEATLGSGNLRQAVMLPEGEDLNEWIAVNTVDFFNQINMLYGTITEFCTEASCPVMSAGPRYEYHWADGTNIKKPIKCSAPKYIDYLMTWVQDQLDDETLFPSKIGVPFPKNFMSVAKTILKRLFRVYAHIYHQHFDSVMQLQEEAHLNTSFKHFIFFVQEFNLIDRRELAPLQELIEKLGSKDR
modifications: left off: a dimerising Fc or GST
notes: GST fusion of hMOB1 added to HA-NDR kinase reactions
- effect on NDR autophosphorylation activity (HA-NDR): stimulated NDR autophosphorylation activity
